We go through two molecules from patent publication US20180133288A1 (ILDONG PHARM, published 2018).

B1: VEGF165 (ligand, UniProt P15692-4 27-191, looked up)
chain: APMAEGGGQNHHEVVKFMDVYQRSYCHPIETLVDIFQEYPDEIEYIFKPSCVPLMRCGGCCNDEGLECVPTEESNITMQIMRIKPHQGQHIGEMSFLQHNKCECRPKKDRARQENPCGPCSERRKHLFVQDPQTCKCSCKNTDSRCKARQLELNERTCRCDKPRR
B2: neuropilin 1 receptor (receptor, UniProt O14786 273-586, looked up)
chain: FKCMEALGMESGEIHSDQITASSQYSTNWSAERSRLNYPENGWTPGEDSYREWIQVDLGLLRFVTAVGTQGAISKETKKKYYVKTYKIDVSSNGEDWITIKEGNKPVLFQGNTNPTDVVVAVFPKPLITRFVRIKPATWETGISMRFEVYGCKITDYPCSGMLGMVSGLISDSQITSSNQGDRNWMPENIRLVTSRSGWALPPAPHSYINEWLQIDLGEEKIVRGIIIQGGKHRENKVFMRKFKIGYSNNGSDWKMIMDDSKRKAKSFEGNNNYDTPELRTFPALSTRFIRIYPERATHGGLGLRMELLGCEVE
notes: The construct is not defined; The same entry is used for the SPR and ELISA experiments; also called NRP1; NRP 1

Test [1] has as its target B2. Nature of the test: SPR (Biacore 2000), neuropilin 1 domain fixed on CM5 chip, VEGF165 as analyte 80 nM to 5 nM. Here is the method: (§1) First, the affinity to a neuropilin receptor was performed on neuropilin 1 (NRP 1). Specifically, surface plasmon resonance (SPR) was performed using Biacore 2000 (GE Healthcare) in order to investigate the binding ability of TPP to the neuropilin 1 domain. Specifically, each neuropilin 1 domain was diluted in 10 mM Na-acetate buffer (pH 4.0), and fixed on CMS sensor chip (GE Healthcare, USA) at about 1,000 response units (RU). […] After the association/dissociation analysis, the CMS chip was regenerated by allowing buffer (20mM NaOH, 1M NaCl, pH 10.0) to flow at a flow rate of 30 μl/min for 1 minute.
A general note: SPR reads the build-up and loss of mass on a sensor chip optically.

Test [2] has as its target T1, semaphorin 3A (UniProt Q14563 21-771, limits assumed).
T1 construct: also called Sema3A; Sema3A ligand
T1 sequence (looked up): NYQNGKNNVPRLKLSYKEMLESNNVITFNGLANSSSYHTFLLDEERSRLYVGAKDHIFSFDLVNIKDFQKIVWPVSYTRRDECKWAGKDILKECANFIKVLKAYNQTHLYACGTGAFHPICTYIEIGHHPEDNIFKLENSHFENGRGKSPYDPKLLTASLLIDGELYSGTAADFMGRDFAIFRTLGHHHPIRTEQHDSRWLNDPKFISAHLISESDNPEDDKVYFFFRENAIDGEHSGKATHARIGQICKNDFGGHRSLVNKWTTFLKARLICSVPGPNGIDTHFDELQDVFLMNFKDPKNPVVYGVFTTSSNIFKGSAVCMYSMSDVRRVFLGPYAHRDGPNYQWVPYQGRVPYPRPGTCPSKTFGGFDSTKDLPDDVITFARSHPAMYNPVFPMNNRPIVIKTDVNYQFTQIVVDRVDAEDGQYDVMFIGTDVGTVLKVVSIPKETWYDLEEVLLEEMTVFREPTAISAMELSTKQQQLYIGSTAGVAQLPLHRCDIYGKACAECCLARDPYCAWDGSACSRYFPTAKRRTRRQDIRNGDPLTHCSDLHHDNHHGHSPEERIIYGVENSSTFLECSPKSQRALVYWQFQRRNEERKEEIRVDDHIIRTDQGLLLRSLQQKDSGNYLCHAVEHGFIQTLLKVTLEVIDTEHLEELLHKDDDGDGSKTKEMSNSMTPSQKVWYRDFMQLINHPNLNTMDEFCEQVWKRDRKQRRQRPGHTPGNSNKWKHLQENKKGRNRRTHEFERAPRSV
As to the kind of experiment: SPR (Biacore 2000), neuropilin 1 domain fixed on CM5 chip, semaphorin 3A as analyte 1 uM to 62.5 nM. Here is the method: as §1

In general, Kd refers to the free concentration of one partner at which half of the binding sites on the other are occupied at equilibrium, for simple one-to-one binding. A low value points to a tighter complex. For the molecule B1, the Kd in test [1] stood at 3.51 nM. This counts as single-digit nanomolar.

As for B2, the Kd in test [2] is 27.9 nM.
